Experimental data taken from ChEMBL document CHEMBL1158843, “Development of a radiochemical cyclooxygenase-1 and -2 in vitro assay for identification of natural products as inhibitors of prostaglandin biosynthesis” (J Nat Prod, 1998).

Tests used:
[1] = substrate: CCCCC/C=C\C/C=C\C/C=C\C/C=C\CCCC(=O)O; test: Activity of bovine seminal microsomal COX1; details: Bos taurus
[2] = substrate: CCCCC/C=C\C/C=C\C/C=C\C/C=C\CCCC(=O)O; test: Activity of sheep placental cotyledons COX2; details: Ovis aries

Row | Protein | Km [1] [µM] | Km [2] [µM]
1 | Prostaglandin G/H synthase 1 (Bos taurus), O62664 (protein) MSRQGISLRFPLLLLLLSPSPVLPADPGAPAPVNPCCYYPCQHQGICVRFGLDRYQCDCTRTGYYGPNCTIPEIWTWLRTTLRPSPSFVHFLLTHGRWLWDFVNATFIRDKLMRLVLTVRSNLIPSPPTYNVAHDYISWESFSNVSYYTRILPSVPRDCPTPMGTKGKKQLPDAEFLSRRFLLRRKFIPDPQGTNLMFAFFAQHFTHQFFKTSGKMGPGFTKALGHGVDLGHIYGDNLERQYQLRLFKDGKLKYQMLNGEVYPPSVEEAPVLMHYPRGIPPQSQMAVGQEVFGLLPGLMVYATIWLREHNRVCDLLKAEHPTWGDEQLFQTARLILIGETIKIVIEEYVQQLSGYFLQLKFDPELLFGAQFQYRNRIAMEFNQLYHWHPLMPDSFRVGPQDYSYEQFLFNTSMLVDYGVEALVDAFSRQPAGRIGGGRNIDHHILHVAVDVIKESRELRLQPFNEYRKRFGMKPYTSFQELTGEKEMAAELEELYGDIDALEFYPGLLLEKCHPNSIFGESMIEMGAPFSLKGLLGNPICSPEYWKASTFGGDVGFNLVKTATLKKLVCLNTKTCPYVSFHVPDPHREDRPGVERPPTEL | 8.8 | –
2 | Prostaglandin G/H synthase 2 (Ovis aries), P79208 (protein) MLARALLLCAAVVCGAANPCCSHPCQNRGVCMSVGFDQYKCDCTRTGFYGENCTTPEFLTRIKLLLKPTPDTVHYILTHFKGVWNIVNKISFLRNMIMRYVLTSRSHLIESPPTYNVHYSYKSWEAFSNLSYYTRALPPVPDDCPTPMGVKGRKELPDSKEVVKKVLLRRKFIPDPQGTNLMFAFFAQHFTHQFFKTDIERGPAFTKGKNHGVDLSHVYGESLERQHNRRLFKDGKMKYQMINGEMYPPTVKDTQVEMIYPPHIPEHLKFAVGQEVFGLVPGLMMYATIWLREHNRVCDVLKQEHPEWGDEQLFQTSRLILIGETIKIVIEDYVQHLSGYHFKLKFDPELLFNQQFQYQNRIAAEFNTLYHWHPLLPDVFQIDGQEYNYQQFIYNNSVLLEHGVTQFVESFTRQIAGRVAGRRNLPAAVEKVSKASLDQSREMKYQSFNEYRKRFLLKPYESFEELTGEKEMAAELEALYGDIDAMELYPALLVEKPAPDAIFGETMVEAGAPFSLKGLMGNPICSPEYWKPSTFGGEVGFKIINTASIQSLICSNVKGCPFTSFSVQDAHLTKTVTINASSSHSGLDDINPTVLLKERSTEL | – | 9.7
